Data on one molecule can be found in patent publication US20160250313A1 (GlaxoSmithKline, published 2016).

The target in this assay is T1, Vitronectin from human plasma, SIGMA-ALDRICH (human, UniProt P04004 20-478).
T1 construct: mature
As to the kind of experiment: ELISA, fusion protein coated at 10 ug/ml, vitronectin from 10 ug/ml in two-fold dilutions, detected with peroxidase sheep anti-human vitronectin. Background: An ELISA detects its analyte on a solid surface through an enzyme-linked reagent.

T1 sequence (P04004 20-478): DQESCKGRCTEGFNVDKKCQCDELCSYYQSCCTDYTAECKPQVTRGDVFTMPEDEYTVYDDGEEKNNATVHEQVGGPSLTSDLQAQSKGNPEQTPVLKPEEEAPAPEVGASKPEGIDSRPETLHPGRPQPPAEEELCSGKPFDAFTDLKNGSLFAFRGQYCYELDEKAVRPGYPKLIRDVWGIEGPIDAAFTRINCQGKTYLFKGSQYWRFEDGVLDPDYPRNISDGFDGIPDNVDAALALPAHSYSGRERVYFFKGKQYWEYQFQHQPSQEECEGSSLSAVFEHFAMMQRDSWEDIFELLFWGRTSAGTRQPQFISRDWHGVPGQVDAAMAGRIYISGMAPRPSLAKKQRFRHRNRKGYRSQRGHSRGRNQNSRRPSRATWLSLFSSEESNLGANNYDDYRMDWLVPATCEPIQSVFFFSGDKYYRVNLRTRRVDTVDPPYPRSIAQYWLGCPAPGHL

B1: purified LVL317 PE-PilA fusion protein (other)
chain: QIQKAEQNDVKLAPPTDVRSGYIRLVKNVNYYIDSESIWVDNQEPQIVHFDAVVNLDKGLYVYPEPKRYARSVRQYKILNCANYHLTQVRTDFYDEFWGQGLRAAPKKQKKHTLSLTPDTTLYNAAQIICANYGEAFSVDKKGGTKKAAVSELLQASAPYKADVELCVYSTNETTNCTGGKNGIAADITTAKGYVKSVTTSNGAITVKGDGTLANMEYILQATGNAATGVTWTTTCKGTDASLFPANFCGSVTQ
notes: Coated on microtiter plates at 10 ug/ml; also called PE-PilA fusion non His-tagged protein
B1: the binding result is given as “binds”.
